In the Human Domainome abundance scans (Beltran et al. 2025) one finds abundance fitness data, which are given here for 34 variants.

The labels stand for the following.
B1: Receptor-interacting serine/threonine-protein kinase 2, residues 438 to 518; numbered along this chain, O43353 (parent)
chain: QWIQSKREDIVNQMTEACLNQSLDALLSRDLIMKEDYELVSTKPTRTSKVRQLLDTTDIQGEEFAKVIVQKLKDNKQMGLQ

± gives the uncertainty stated by the source.

The data set covers variants of B1. The data set can be described thus: abundance fitness (aPCA) (normalised: wild type 0, dead -1); higher = more abundant; growth selection in yeast, the domain comes from the species named. Particulars: Homo sapiens.
For QWIQSKREDFVNQMTEACLNQSLDALLSRDLIMKEDYELVSTKPTRTSKVRQLLDTTDIQGEEFAKVIVQKLKDNKQMGLQ [I10F], the abundance fitness is -0.877 ± 0.47. Turning to QWIQSKREDHVNQMTEACLNQSLDALLSRDLIMKEDYELVSTKPTRTSKVRQLLDTTDIQGEEFAKVIVQKLKDNKQMGLQ [I10H], the abundance fitness is -0.862 ± 0.23. Under QWIQSKREDSVNQMTEACLNQSLDALLSRDLIMKEDYELVSTKPTRTSKVRQLLDTTDIQGEEFAKVIVQKLKDNKQMGLQ [I10S] stands -0.618 ± 0.098. Turning to QWIQSKREDWVNQMTEACLNQSLDALLSRDLIMKEDYELVSTKPTRTSKVRQLLDTTDIQGEEFAKVIVQKLKDNKQMGLQ [I10W], the abundance fitness was -0.968 ± 0.29. As for QWIQSKREDPVNQMTEACLNQSLDALLSRDLIMKEDYELVSTKPTRTSKVRQLLDTTDIQGEEFAKVIVQKLKDNKQMGLQ [I10P], the figure is -0.622 ± 0.14; as for QWIQSKREDLVNQMTEACLNQSLDALLSRDLIMKEDYELVSTKPTRTSKVRQLLDTTDIQGEEFAKVIVQKLKDNKQMGLQ [I10L], -0.264 ± 0.087. Under QWIQSKREDNVNQMTEACLNQSLDALLSRDLIMKEDYELVSTKPTRTSKVRQLLDTTDIQGEEFAKVIVQKLKDNKQMGLQ [I10N] stands -0.476 ± 0.12. As for QWIQSKREDGVNQMTEACLNQSLDALLSRDLIMKEDYELVSTKPTRTSKVRQLLDTTDIQGEEFAKVIVQKLKDNKQMGLQ [I10G], the figure is -0.764 ± 0.11; as for QWIQSKREDMVNQMTEACLNQSLDALLSRDLIMKEDYELVSTKPTRTSKVRQLLDTTDIQGEEFAKVIVQKLKDNKQMGLQ [I10M], -0.421 ± 0.23. As to QWIQSKREDTVNQMTEACLNQSLDALLSRDLIMKEDYELVSTKPTRTSKVRQLLDTTDIQGEEFAKVIVQKLKDNKQMGLQ [I10T], the abundance fitness was -0.697 ± 0.15. Under QWIQSKREDKVNQMTEACLNQSLDALLSRDLIMKEDYELVSTKPTRTSKVRQLLDTTDIQGEEFAKVIVQKLKDNKQMGLQ [I10K] stands -0.619 ± 0.16; under QWIQSKREDQVNQMTEACLNQSLDALLSRDLIMKEDYELVSTKPTRTSKVRQLLDTTDIQGEEFAKVIVQKLKDNKQMGLQ [I10Q], -0.541 ± 0.16.

With QWIQSKREDVVNQMTEACLNQSLDALLSRDLIMKEDYELVSTKPTRTSKVRQLLDTTDIQGEEFAKVIVQKLKDNKQMGLQ [I10V], the abundance fitness is -0.628 ± 0.12. Under QWIQSKREDCVNQMTEACLNQSLDALLSRDLIMKEDYELVSTKPTRTSKVRQLLDTTDIQGEEFAKVIVQKLKDNKQMGLQ [I10C] stands -0.712 ± 0.17. As to QWIQSKREDYVNQMTEACLNQSLDALLSRDLIMKEDYELVSTKPTRTSKVRQLLDTTDIQGEEFAKVIVQKLKDNKQMGLQ [I10Y], the abundance fitness was -0.864 ± 0.28. With QWIQSKREDIVNQMNEACLNQSLDALLSRDLIMKEDYELVSTKPTRTSKVRQLLDTTDIQGEEFAKVIVQKLKDNKQMGLQ [T15N], the abundance fitness is -0.518 ± 0.093. Under QWIQSKREDIVNQMIEACLNQSLDALLSRDLIMKEDYELVSTKPTRTSKVRQLLDTTDIQGEEFAKVIVQKLKDNKQMGLQ [T15I] stands -1.12 ± 0.34; under QWIQSKREDIVNQMCEACLNQSLDALLSRDLIMKEDYELVSTKPTRTSKVRQLLDTTDIQGEEFAKVIVQKLKDNKQMGLQ [T15C], -0.877 ± 0.16. Under QWIQSKREDIVNQMDEACLNQSLDALLSRDLIMKEDYELVSTKPTRTSKVRQLLDTTDIQGEEFAKVIVQKLKDNKQMGLQ [T15D] stands -0.152 ± 0.11; under QWIQSKREDIVNQMGEACLNQSLDALLSRDLIMKEDYELVSTKPTRTSKVRQLLDTTDIQGEEFAKVIVQKLKDNKQMGLQ [T15G], -0.566 ± 0.071; under QWIQSKREDIVNQMKEACLNQSLDALLSRDLIMKEDYELVSTKPTRTSKVRQLLDTTDIQGEEFAKVIVQKLKDNKQMGLQ [T15K], -0.736 ± 0.24. With QWIQSKREDIVNQMHEACLNQSLDALLSRDLIMKEDYELVSTKPTRTSKVRQLLDTTDIQGEEFAKVIVQKLKDNKQMGLQ [T15H], the abundance fitness is -1.13 ± 0.35.

With QWIQSKREDIVNQMEEACLNQSLDALLSRDLIMKEDYELVSTKPTRTSKVRQLLDTTDIQGEEFAKVIVQKLKDNKQMGLQ [T15E], the abundance fitness was -0.767 ± 0.27. Under QWIQSKREDIVNQMLEACLNQSLDALLSRDLIMKEDYELVSTKPTRTSKVRQLLDTTDIQGEEFAKVIVQKLKDNKQMGLQ [T15L] stands -0.75 ± 0.12. Under QWIQSKREDIVNQMAEACLNQSLDALLSRDLIMKEDYELVSTKPTRTSKVRQLLDTTDIQGEEFAKVIVQKLKDNKQMGLQ [T15A] stands -0.645 ± 0.11. Under QWIQSKREDISNQMTEACLNQSLDALLSRDLIMKEDYELVSTKPTRTSKVRQLLDTTDIQGEEFAKVIVQKLKDNKQMGLQ [V11S] stands -0.575 ± 0.071; under QWIQSKREDIGNQMTEACLNQSLDALLSRDLIMKEDYELVSTKPTRTSKVRQLLDTTDIQGEEFAKVIVQKLKDNKQMGLQ [V11G], -0.553 ± 0.063.

As for QWIQSKREDIHNQMTEACLNQSLDALLSRDLIMKEDYELVSTKPTRTSKVRQLLDTTDIQGEEFAKVIVQKLKDNKQMGLQ [V11H], the abundance fitness was -0.656 ± 0.29. As for QWIQSKREDINNQMTEACLNQSLDALLSRDLIMKEDYELVSTKPTRTSKVRQLLDTTDIQGEEFAKVIVQKLKDNKQMGLQ [V11N], the abundance fitness is -0.577 ± 0.27. As for QWIQSKREDIQNQMTEACLNQSLDALLSRDLIMKEDYELVSTKPTRTSKVRQLLDTTDIQGEEFAKVIVQKLKDNKQMGLQ [V11Q], the figure is -0.776 ± 0.21; as for QWIQSKREDIINQMTEACLNQSLDALLSRDLIMKEDYELVSTKPTRTSKVRQLLDTTDIQGEEFAKVIVQKLKDNKQMGLQ [V11I], 0.091 ± 0.12. Under QWIQSKREDICNQMTEACLNQSLDALLSRDLIMKEDYELVSTKPTRTSKVRQLLDTTDIQGEEFAKVIVQKLKDNKQMGLQ [V11C] stands -0.288 ± 0.09; under QWIQSKREDIFNQMTEACLNQSLDALLSRDLIMKEDYELVSTKPTRTSKVRQLLDTTDIQGEEFAKVIVQKLKDNKQMGLQ [V11F], -0.777 ± 0.46; under QWIQSKREDIRNQMTEACLNQSLDALLSRDLIMKEDYELVSTKPTRTSKVRQLLDTTDIQGEEFAKVIVQKLKDNKQMGLQ [V11R], -0.534 ± 0.081.
